In the assay the target is SARS-CoV-2 receptor binding domain (RBD), residues 319-591 of SARS-CoV-2 S (SARS-CoV-2, UniProt P0DTC2 319-591). Nature of the assay: BLI, mAb on anti-human Fc probe (FIGS. 5A-E). (In general: Biolayer interferometry detects binding as a change in optical thickness at a sensor tip.)

This note sets out measurements from US20240400651A1 (VAL CHUM LIMITED PARTNERSHIP, published 2024).

B1: Mab #1 (antibody, V domains shown)
VH: EVQLVESGPEVKKPGTSVKVPCKASGFTFTSSAVQWVRQARGQRLEWIGWIVVGSGNTNYAQKFQERVTITRDMSTSTAYMELSSLRSEDTAVYYCAAPSCSGGRCYDGFDIWGQGTMVTVSS
VL: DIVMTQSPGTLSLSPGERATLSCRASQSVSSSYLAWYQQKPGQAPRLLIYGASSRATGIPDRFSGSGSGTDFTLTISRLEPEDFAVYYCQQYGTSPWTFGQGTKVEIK
Turning to B1, the binding result was “binds”.
